Test results published in PMC11641776, “Biophysical Characterization of a Novel Phosphopentomutase from the Hyperthermophilic Archaeon Thermococcus kodakarensis” (International Journal of Molecular Sciences, 2024).

Target: the molecule itself
Assay: SEC; HiLoad 16/60 Superdex 200 Prep Grade column, 50 mM HEPES pH 7.0, 200 mM NaCl; elution at 61 mL, compared with standards

B1: Phosphopentomutase from Thermococcus kodakarensis (PPMTk) (enzyme)
chain: RLFGTAGIRGTLWEKVTPELAMKVGMAVGTYKSGKALVGRDGRTSSVMLKNAMISGLLSTGMEVLDADLIPTPALAWGTRKLADAGVMITASHNPPTDNGVKVFNGDGTEFYVEQERGLEEIIFSGNFRKARWDEIKPVRNVEVIPDYINAVLDFVGHETNLKVLYDGANGAGSLVAPYLLREMGAKVLSVNAHVDGHFPGRKPEPRYENIAYLGKLVRELGVDLAIAQDGDADRIAVFDEKGNYVDEDTVIALFAKLYVEEHGGGTVVVSIDTGSRIDAVVERAGGRVVRIPLGQPHDGIKRYKAIFAAEPWKLVHPKFGPWIDPFVTMGLLIKLIDENGPLSELVKEIPTYYLKKANVLCPDEYKAEVVRRAAEEVERKLSSEIKEVLTISGFRIALNDGSWILIRPSGTEPKIRVVAEAPTEKRRDELFEMAYSTVSRIVKEAEKK
notes: Phosphopentomutase PPMTk of Thermococcus kodakarensis, encoded by open reading frame TK1777; UniProt entry Q6I7B6; residues 3-447 are modelled in each of the four protomers of the crystal structure; the tag was cut off with TEV protease before SEC and the later analyses; also called TK1777; Tk1777; not shown: His6, N-terminal, cleaved
For B1, the “stoichiometry N” value was 4.
